Patent publication US9518268B2, “Drought tolerant transgenic plants and method of making same” (PURDUE RESEARCH FOUNDATION, priority 2013, dated 2016)
“Also recorded” adds a separate entry of the source.

B1: PYL13: Arabidopsis thaliana PYR/PYL/RCAR family protein PYL13, SEQ ID NO: 1 (protein, listed as Arabidopsis thaliana)
chain: MESSKQKRCRSSVVETIEAPLPLVWSILRSFDKPQAYQRFVKSCTMRSGGGGGKGGEGKGSVRDVTLVSGFPADFSTERLEELDDESHVMVVSIIGGNHRLVNYKSKTKVVASPEDMAKKTVVVESYVVDVPEGTSEEDTIFFVDNIIRYNLTSLAKLTKKMMK

Tested on: RD29B-LUC expression
Test: Reconstituted ABA signaling pathway, transient expression in wild-type (Col-0) protoplasts
Type: cell-based, Arabidopsis
Conditions: for ABA-dependent induction of RD29B-LUC expression: co-transfected with ABI1, SnRK2.6 and ABF2, without or with 5 μM ABA, 4.5 h; for RD29B-LUC expression: SnRK2.6 and ABF2; for level of inhibition by PYL13 of the other PYL's activity: 2×PYL13 plasmid, ABI1, SnRK2.6, ABF2 co-expressed
Protocol: To test whether PYL13 can act as an ABA receptor, the ABA signaling pathway in wild-type protoplasts was reconstituted. Turning now to FIG. 1, wild-type (Col-0) protoplasts were used in both panels A and B. After transfection, the protoplasts were incubated for 4.5 hours under light in the absence of ABA (open bars) or in the presence of 5 μM ABA (closed bars). Error bars indicate s.e.m. (n=3). […] ZmUBQ-GUS was used as the internal control. […] Instead, the ABA signaling pathway was reconstituted by co-expression of PYLs, ABI1, SnRK2.6, and ABF2. […] Therefore, the response of other members of the PYL family would not predict the response of PYL13 expression or over-expression in plants.
PYL13 interacts with all clade A PP2Cs tested but binds most strongly to PP2CA. To investigate whether PYL13 inhibits PP2Cs in planta, PYL13 was co-expressed with all clade A PP2Cs in wild-type protoplasts, as shown in FIG. 4. Transfections of all PP2Cs together with SnRK2.6 and ABF2 inhibited RD29B-LUC expression to different degrees, see FIG. 4A, and the degree of inhibition was correlated with the intensity of interaction between PP2Cs and SnRK2.6 (Fujii et al., 2009). […] The ABA signaling pathway was reconstituted by co-expression of PYLs, PP2Cs, SnRK2.6, and ABF2. RD29B-LUC was used as the ABA-responsive reporter. ZmUBQ-GUS was used as the internal control. After transfection, protoplasts were incubated for 4.5 h under light in the absence of ABA (open bars) or in the presence of 5 μM ABA (closed bars). Error bars indicate s.e.m. (n=9).
To investigate the physiological significance of the binding between PYL13 and PYLs in vivo, PYL13 was co-expressed with one of the other PYLs, ABI1, SnRK2.6, and ABF2 in wild-type protoplasts. When the transfected PYL13 plasmid was 2-fold of that of the other PYLs, co-transfections with PYL13 decreased the activity of the ABA-responsive PYLs (FIG. 5E). […] ZmUBQ-GUS was used as the internal control. After transfection, protoplasts were incubated for 4.5 h under light in the absence of ABA (open bars) or in the presence of 5 μM ABA (closed bars). Error bars indicate s.e.m. (n=3).
The ABA signaling pathway was reconstituted by co-expression of PYL13, PYLs, ABI1, SnRK2.6, and ABF2. […] Error bars indicate s.e.m. (n=3). […] Without wishing to be bound by theory, PYL13 inhibition of other PYLs might result from direct interactions between PYL13 and other PYLs or from competition for the binding sites on PP2Cs.
Assays for transient expression in protoplasts were performed as described (Fujii et al., 2009). Leaf strips (0.5 mm) were cut from the middle part of second leaves using a razor blade (VWR SCIENTIFIC) and submerged in 15 mL of enzyme solution containing 20 mM MES, pH 5.7, 1.5% (w/v) cellulase R10 (YAKULT PHARMACEUTICAL INDUSTRY), 0.4% (w/v) macerozyme R10 (YAKULT PHARMACEUTICAL INDUSTRY), 0.4 M mannitol, 20 mM KCl, 10 mM CaCl2, 1 mM 2-mercaptoethanol, and 0.1% BSA. The leaves were vacuum infiltrated for 30 min and then incubated without shaking for 3 h in the dark at room temperature. The enzyme/protoplast solution was diluted with 15 mL of W5 solution (2 mM MES, pH 5.7, 154 mM NaCl, 125 mM CaCl2, and 5 mM KCl) and filtered with a 75-μm nylon mesh. Protoplasts were centrifuged at 100 g for 2 min in a 30-mL round-bottomed tube (SARSTEDT), resuspended in W5 solution, and rested for 30 min at room temperature.
Before transfection, protoplasts were changed into MMg solution (4 mM MES, pH 5.7, 0.4 M mannitol, and 15 mM MgCl2) to a final concentration of 2×10^5 cells per microliter. Protoplasts (100 μl) were gently and thoroughly mixed with the plasmid DNA mixture (less than 10 μl) and 110 μl of PEG solution (40% w/v PEG-4000, 0.2 M mannitol, and 100 mM CaCl2), incubated for 5 min, washed with 440 μl of W5 solution, and resuspended in 50 μl of WI solution (4 mM MES, pH 5.7, 0.5 M mannitol, and 20 mM KCl). After transfection, protoplasts were incubated in WI solution without ABA or with 5 μM ABA under light. […]

| Molecule | ABA-dependent induction of RD29B-LUC expression | RD29B-LUC expression (co-transfection with ABI1, ABI2, HAB1, HAB2, or AHG1) | RD29B-LUC expression (co-transfection with PP2CA, HAI2, or HAI3) | level of inhibition by PYL13 of the other PYL's activity (with PYL1) [%] | level of inhibition by PYL13 of the other PYL's activity (with PYL2) [%] |
| --- | --- | --- | --- | --- | --- |
| PYL2: Arabidopsis thaliana PYL family ABA receptor protein PYL2, AT2G26040 | enabled the expression; also recorded: restored RD29B-LUC expression |  |  |  |  |
| B1 | did not enable the expression | did not enable RD29B-LUC expression | enabled the ABA-dependent induction | 67 | 27 |
